Target: T1, human CD19 (human, UniProt P15391 20-556)
T1 construct: whole, on cells; also called CD19 on Raji cells; CD19 on Ramos cells
T1 sequence (looked up): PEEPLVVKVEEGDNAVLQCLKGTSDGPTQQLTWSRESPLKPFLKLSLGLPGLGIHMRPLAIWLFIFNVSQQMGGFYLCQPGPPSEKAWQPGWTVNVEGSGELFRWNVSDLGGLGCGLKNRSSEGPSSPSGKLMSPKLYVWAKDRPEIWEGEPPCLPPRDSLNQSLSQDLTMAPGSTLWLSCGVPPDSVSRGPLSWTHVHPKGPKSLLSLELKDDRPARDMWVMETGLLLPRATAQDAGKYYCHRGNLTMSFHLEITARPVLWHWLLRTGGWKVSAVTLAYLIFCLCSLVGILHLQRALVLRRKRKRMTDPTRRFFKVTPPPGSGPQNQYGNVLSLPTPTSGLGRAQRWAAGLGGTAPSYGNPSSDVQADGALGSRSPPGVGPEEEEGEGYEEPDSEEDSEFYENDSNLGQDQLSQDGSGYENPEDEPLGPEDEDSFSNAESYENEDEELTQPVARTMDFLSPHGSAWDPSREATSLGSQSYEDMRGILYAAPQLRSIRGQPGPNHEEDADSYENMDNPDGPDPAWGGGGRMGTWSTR
Experiment: flow cytometry (FACS) on CD19-expressing Raji cells, 0.001 µg/ml construct, FITC goat anti-human IgG.Fc detection
Method: The assay was performed by incubating 1×10⁶CD19-expressing Raji cells with 0.001 μg/ml of each construct in PBS, 1% BSA on ice for 30 minutes, using anti-CD19 antibody (RB4v1.2), (scFv α CD19)-Fc-MBM-1 X 2 DOTA bundles and (scFv α CD19)-Fc-MBM-3 X 2 DOTA bundles as positive controls. The anti-HER2 antibody (trastuzumab) was used as a negative control. The staining of cells was analyzed by FACS (FACSCanto II; BD Biosciences) using FITC-conjugated goat anti-human IgG.Fc (diluted 1:200 in PBS/BSA) (Caltag, Buckingham, UK) at 4° C. for 20 minutes in the dark.

B1: stabilized (scFv α CD19)-Fc-MBM-3 X 2 DOTA bundles (Fc fusion)
chain: EIVLTQSPAIMSASPGERVTMTCSASSGVNYMHWYQQKPGTSPRRWIYDTSKLASGVPARFSGSGSGTDYSLTISSMEPEDAATYYCHQRGSYTFGGGTKLEIKRGSTSGSGKPGSGEGSTKGQVQLVQPGAEVVKPGASVKLSCKTSGYTFTSNWMHWVKQAPGQGLEWIGEIDPSDSYTNYNQNFQGKAKLTVDKSTSTAYMEVSSLRSDDTAVYYCARGSNPYYYAMDYWGQGTSVTVSSGGGASDKTHTCPPCPAPELLGGPSVFLFPPKPKDTLMISRTPEVTCVVVDVSHEDPEVKFNWYVDGVEVHNAKTKPREEQYNSTYRVVSVLTVLHQDWLNGKDYKCKVSNKALPAPIEKTISKAKGQPREPQVYTLPPSRDELTRNQVSLTCLVKGFYPSDIAVEWESNGQPENNYKTTPPVLDSDGSFFLYSKLTVDKSRWQQGNVFSCSVMHEALHNHYTQKSLSLSPGGGGGCGGHA
modifications: cysteine residue of the C-terminal metal binding motif GCGGHA conjugated with one Mal-Peptide 2-DOTA bundle (three DOTA on a maleimido-ethyl peptide core)
notes: also called recombinant 2-chain (scFv α CD19)-Fc-MBM-3 X 2 DOTA bundles; 2-chain (VL-VH scFv α CD19)-Fc-MBM-3 conjugated with two DOTA bundles
- binding result: binds

From US20200308223A1 (IMMUNWORK, published 2020)
